First the molecules themselves.
B1: RIPK4 (parent)
chain: VIDLFDEQGLSALHLAAQGRHAQT
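Note: lentivirally expressed fusions sorted by FACS into six bins by GFP to DsRed ratio, PSI derived from sequencing read proportions per bin multiplied by bin number.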

In the series the parent is B1. Nature of the series: protein stability index of a GFP-peptide fusion (GPS, HEK-293T) (PSI 1-6); higher = more stable. The following applies: c terminus: a fixed tail appended.
Take VIDLFDEQGLSALHLTAQGRHAQT [A16T]: the protein stability index is 3.11.

Consider VIDLFDEQGLSALHLQAQGRHAQT [A16Q], for which the protein stability index stood at 2.77. Turning to VIDLFDEQGLSALHLEAQGRHAQT [A16E], the protein stability index was determined as 3.2. Next, VIDLFDEQGLSALHLSAQGRHAQT [A16S]: 3.15; VIDLFDEQGLSALHLFAQGRHAQT [A16F]: 1.99; VIDLFDEQGLSALHLVAQGRHAQT [A16V]: 2.01.

In the case of VIDLFDEQGLSALHLMAQGRHAQT [A16M], the protein stability index is 2.4. Then VIDLFDEQGLSALHLPAQGRHAQT [A16P], with 3.42; and VIDLFDEQGLSALHLNAQGRHAQT [A16N], with 3.46; and VIDLFDEQGLSALHLGAQGRHAQT [A16G], with 3.27. For the variant VIDLFDEQGLSALHLHAQGRHAQT [A16H], the protein stability index came to 2.83. For VIDLFDEQGLSALHLCAQGRHAQT [A16C], the protein stability index is 2.59. Turning to VIDLFDEQGLSALHLDAQGRHAQT [A16D], the protein stability index came out at 3.55.

Turning to VIDLFDEQGLSALHLWAQGRHAQT [A16W], the protein stability index was 1.51.

For VIDLFDEQGLSALHLIAQGRHAQT [A16I], the protein stability index was determined as 2.35. Then VIDLFDEQGLSALHLKAQGRHAQT [A16K], with 2.98; and VIDLFDEQGLSALHLRAQGRHAQT [A16R], with 2.42; and VIDLFDEQGLSALHLLAQGRHAQT [A16L], with 1.85. Then VIDLFDEQGLSALHLYAQGRHAQT [A16Y], with 2.08; and VIDLFDEQGLSALHNAAQGRHAQT [L15N], with 3.8.

On to VIDLFDEQGLSALHIAAQGRHAQT [L15I], for which the protein stability index is 2.81. Consider VIDLFDEQGLSALHVAAQGRHAQT [L15V], for which the protein stability index was found to be 3.07.

With VIDLFDEQGLSALHAAAQGRHAQT [L15A], the protein stability index is 3.31. Take VIDLFDEQGLSALHFAAQGRHAQT [L15F]: the protein stability index was found to be 2.41. VIDLFDEQGLSALHSAAQGRHAQT [L15S]: the protein stability index worked out at 4.01.

Regarding VIDLFDEQGLSALHRAAQGRHAQT [L15R], the protein stability index came to 2.94. As for VIDLFDEQGLSALHHAAQGRHAQT [L15H], the protein stability index was found to be 3.3.

Take VIDLFDEQGLSALHGAAQGRHAQT [L15G]: the protein stability index turned out to be 3.74.

In the case of VIDLFDEQGLSALHDAAQGRHAQT [L15D], the protein stability index turned out to be 3.39. As for VIDLFDEQGLSALHKAAQGRHAQT [L15K], the protein stability index came to 3.39. As for VIDLFDEQGLSALHPAAQGRHAQT [L15P], the protein stability index is 3.37. Turning to VIDLFDEQGLSALHYAAQGRHAQT [L15Y], the protein stability index worked out at 2.32. Then VIDLFDEQGLSALHTAAQGRHAQT [L15T], with 3.51. VIDLFDEQGLSALHQAAQGRHAQT [L15Q]: the protein stability index came out at 3.3. Then VIDLFDEQGLSALHCAAQGRHAQT [L15C], with 2.74; and VIDLFDEQGLSALHMAAQGRHAQT [L15M], with 3.09; and VIDLFDEQGLSALHWAAQGRHAQT [L15W], with 2.26. Regarding VIDLFDEQGLSALHEAAQGRHAQT [L15E], the protein stability index amounted to 3.47.

VIDLFDEQGLSARHLAAQGRHAQT [L13R]: the protein stability index was found to be 3.31. Next, VIDLFDEQGLSAGHLAAQGRHAQT [L13G]: 3.87. Turning to VIDLFDEQGLSAQHLAAQGRHAQT [L13Q], the protein stability index is 3.8. With VIDLFDEQGLSAHHLAAQGRHAQT [L13H], the protein stability index is 3.48. VIDLFDEQGLSASHLAAQGRHAQT [L13S]: the protein stability index was 3.58. Regarding VIDLFDEQGLSAIHLAAQGRHAQT [L13I], the protein stability index was 2.75. Then VIDLFDEQGLSAPHLAAQGRHAQT [L13P], with 4.04; and VIDLFDEQGLSAEHLAAQGRHAQT [L13E], with 4.17. Then VIDLFDEQGLSAVHLAAQGRHAQT [L13V], with 3.06.

For the variant VIDLFDEQGLSATHLAAQGRHAQT [L13T], the protein stability index was 3.56. Turning to VIDLFDEQGLSAAHLAAQGRHAQT [L13A], the protein stability index was 3.38. With VIDLFDEQGLSADHLAAQGRHAQT [L13D], the protein stability index came to 4.04. For VIDLFDEQGLSANHLAAQGRHAQT [L13N], the protein stability index came to 3.3.

As for VIDLFDEQGLSAKHLAAQGRHAQT [L13K], the protein stability index was 3.61. Consider VIDLFDEQGLSAMHLAAQGRHAQT [L13M], for which the protein stability index stood at 3.66. For VIDLFDEQGLSAFHLAAQGRHAQT [L13F], the protein stability index came to 2.87. Then VIDLFDEQGLSAYHLAAQGRHAQT [L13Y], with 2.53; and VIDLFDEQGLSAWHLAAQGRHAQT [L13W], with 2.82; and VIDLFDEQGLSACHLAAQGRHAQT [L13C], with 2.22.

For the variant VIDLFDEQGLSELHLAAQGRHAQT [A12E], the protein stability index stood at 3.54. As to VIDLFDEQGLSVLHLAAQGRHAQT [A12V], the protein stability index is 1.99. Then VIDLFDEQGLSHLHLAAQGRHAQT [A12H], with 2.6. As to VIDLFDEQGLSSLHLAAQGRHAQT [A12S], the protein stability index worked out at 2.96. In the case of VIDLFDEQGLSPLHLAAQGRHAQT [A12P], the protein stability index is 3.25.

Take VIDLFDEQGLSTLHLAAQGRHAQT [A12T]: the protein stability index turned out to be 2.82. Then VIDLFDEQGLSYLHLAAQGRHAQT [A12Y], with 2.54; and VIDLFDEQGLSCLHLAAQGRHAQT [A12C], with 2.36. Next, VIDLFDEQGLSLLHLAAQGRHAQT [A12L]: 1.98; VIDLFDEQGLSGLHLAAQGRHAQT [A12G]: 2.39; VIDLFDEQGLSFLHLAAQGRHAQT [A12F]: 2.05. For the variant VIDLFDEQGLSDLHLAAQGRHAQT [A12D], the protein stability index was 3.21.

With VIDLFDEQGLSMLHLAAQGRHAQT [A12M], the protein stability index turned out to be 2.46. As to VIDLFDEQGLSILHLAAQGRHAQT [A12I], the protein stability index worked out at 1.91.

Consider VIDLFDEQGLSWLHLAAQGRHAQT [A12W], for which the protein stability index amounted to 2.12. For VIDLFDEQGLSRLHLAAQGRHAQT [A12R], the protein stability index worked out at 3.12.

Take VIDLFDEQGLSQLHLAAQGRHAQT [A12Q]: the protein stability index stood at 3.29. Consider VIDLFDEQGLSKLHLAAQGRHAQT [A12K], for which the protein stability index was 3.5. With VIDLFDEQGLSNLHLAAQGRHAQT [A12N], the protein stability index stood at 3.1. On to VIDLFDEQGLSALHLAYQGRHAQT [A17Y], for which the protein stability index is 2.49. As to VIDLFDEQGLSALHLALQGRHAQT [A17L], the protein stability index turned out to be 1.98. Next, VIDLFDEQGLSALHLAKQGRHAQT [A17K]: 2.8; VIDLFDEQGLSALHLARQGRHAQT [A17R]: 3.17. On to VIDLFDEQGLSALHLAWQGRHAQT [A17W], for which the protein stability index is 1.75.

As for VIDLFDEQGLSALHLAPQGRHAQT [A17P], the protein stability index stood at 2.82. Consider VIDLFDEQGLSALHLAVQGRHAQT [A17V], for which the protein stability index stood at 2.92. In the case of VIDLFDEQGLSALHLAIQGRHAQT [A17I], the protein stability index amounted to 2.69.

For VIDLFDEQGLSALHLAEQGRHAQT [A17E], the protein stability index came out at 3.54. Next, VIDLFDEQGLSALHLAFQGRHAQT [A17F]: 2.47; VIDLFDEQGLSALHLACQGRHAQT [A17C]: 2.54. As for VIDLFDEQGLSALHLANQGRHAQT [A17N], the protein stability index came out at 3.13. VIDLFDEQGLSALHLATQGRHAQT [A17T]: the protein stability index is 2.7. On to VIDLFDEQGLSALHLASQGRHAQT [A17S], for which the protein stability index was 2.83. In the case of VIDLFDEQGLSALHLAMQGRHAQT [A17M], the protein stability index worked out at 1.99.

For the variant VIDLFDEQGLSALHLADQGRHAQT [A17D], the protein stability index came to 3.84. On to VIDLFDEQGLSALHLAQQGRHAQT [A17Q], for which the protein stability index was 2.98. With VIDLFDEQGLSALHLAHQGRHAQT [A17H], the protein stability index is 2.72.
